# Target: Mal3 (UniProt Q10113)
# Test: Mal3-GST pull-down from yeast lysate
# Details: reference: wild-type Klp2-GFP; sites S113,S123
substance,measurement,value
Klp2 (from UniProt Q9US03) Klp2-2A-GFP,binding against the reference,stronger
